From article PMC11677658

Target: Aspergillus sydowii UBOCC-A-108050 SULT (Aspergillus sydowii UBOCC-A-108050)
Experiment: SEC; calibrated size exclusion chromatography of the purified recombinant protein alone (self-association)

Aspergillus sydowii UBOCC-A-108050 SULT (enzyme)
stoichiometry N: 2
